Assay results taken from patent US20210079074A1 (Alector, published 2021).
Read-outs that look alike come from different tables or passages of the source.

How the values were obtained:
[1] = biological target: T1, human MS4A4A (human, UniProt Q96JQ5 1-239); experiment: FACS, U937-huMS4A4A, 5 ug/ml
Method: (§1) Anti-MS4A4A antibodies tested were either mouse IgGs purified from hybridoma supernatant or human IgG1 Fc chimeras produced recombinantly in Expi293 cells. Affinity binding to cells was determined as follows. Briefly, cells were harvested, washed, and labeled with Aqua Live/Dead for viability discrimination. After a wash with PBS, 2×10\hat{ }4 cells were aliquoted per well in 96-well U-bottom plates and incubated with 50 μL of purified anti-MS4A4A antibody at various concentrations (3× dilutions starting at 10 μg/mL) in FACS buffer (PBS+2% FBS+1 mM EDTA). After this primary incubation, the supernatant was removed via centrifugation, washed 2× with 150 μL of ice-cold FACS buffer, and incubated with the appropriate secondary antibody on ice for 15 minutes. Following the secondary antibody incubation, the cells were again washed 2× with ice-cold FACS buffer and resuspended in a final volume of 200 μL of FACS buffer. Flow cytometry analysis was performed on a FACSCanto system (BD Biosciences). Binding data was expressed as Median Fluorescent Intensity (MFI).
(§2) These experiments were performed using anti-MS4A4A antibodies at a concentration of 5 μg/ml and were assayed for cell binding by flow cytometry.

[2] = biological target: T2, recombinant MS4A4A soluble polypeptide JS5; experiment: ELISA, 1 ug/ml antibody
T2 construct: also called JS5.His
Method: (§3) Anti-MS4A4A antibodies of the present disclosure were tested for their ability to bind to the different recombinant MS4A4A soluble polypeptides, as described in Example 2, as follows. Nucleic acid encoding the VH and VL domains of humanized anti-MS4A4A antibodies of the present disclosure were cloned into pcDNA3.4 vector which contains either the human IgG1 heavy chain constant domain or human kappa constant domain. The humanized anti-MS4A4A antibodies were expressed in Expi293 cells and were purified by Mab select antibody purification resin (GE Healthcare Life Science, cat#17519902) following the manufacture's protocol. ELISA was performed to measure binding of anti-MS4A4A antibodies of the present disclosure the recombinant MS4A4A soluble polypeptides. 1 μg/ml biotinylated antigens were preincubated on the streptavidin-coated ELISA plates (Thermo Scientific, cat#PI15120) for 1 hour. Plates were washed 3 times, followed by the addition of antibodies (1 μg/ml, 0.33 μg/ml, and 0.11 μg/ml antibodies. Plates were incubated at room temperature with shaking for 1 hr, washed 3 times, then 1/2500 dilution of HRP conjugates goat anti human kappa antibodies added (SigmaAldrich cat#. A7164-1ML).

[3] = biological target: T2, recombinant MS4A4A soluble polypeptide …; experiment: ELISA, 0.33 ug/ml antibody
Method: as §3

[4] = biological target: T2, recombinant MS4A4A soluble polypeptide …; experiment: ELISA, 0.11 ug/ml antibody
Method: as §3

[5] = biological target: T1, human MS4A4A; experiment: FACS, U937-huMS4A4A, 5 ug/ml; remark: listed apart in the source
Method: as §1, §2

[6] = biological target: T3, recombinant MS4A4A soluble polypeptide JS1; experiment: ELISA, 1 ug/ml antibody
T3 construct: also called JS1.His; loop grafted antigen
Method: as §3

Row | Binder | MFI [1] | ELISA OD [2] | ELISA OD [3] | ELISA OD [4] | MFI [5] | OD450 [6]
1 | anti-MS4A4A antibody 4A-352 (antibody, V domains shown, full human IgG) VH: QVQLVQSGSELKKPGASVKVSCKASGYIFTSYGLSWVRQAPGQGLEWMGWINTYSGVPTYAQGFTGRFVFSLDTSVSTAYLQISSLKAEDTAVYYCARTLADYWGQGTLVTVSS VL: DVVMTQSPLSLPVTLGQPASISCKSSRSLLYSGGKTYLSWFQQRPGQSPRRLIYLVSKLDSGVPDRFSGSGSGTDFTLKISRVEAEDVGVYYCWQGIDFHQTFGGGTKVEIK | 11000 | 0.985 | 0.885 | 0.655 |  | 
2 | anti-MS4A4A antibody 4A-353 (antibody, V domains shown, full human IgG) VH: QVQLVQSGSELKKPGASVKVSCKASGYIFTSYGLSWVRQAPGQGLEWMGWINTYSGVPTYAQGFTGRFVFSLDTSVSTAYLQISSLKAEDTAVYYCARTLADYWGQGTLVTVSS VL: DVVMTQSPLSLPVTLGQPASISCKSSRSLLYSEGKTYLSWFQQRPGQSPRRLIYLVSKLDSGVPDRFSGSGSGTDFTLKISRVEAEDVGVYYCWQGIDFHQTFGGGTKVEIK | 10400 | 0.996 | 0.85 | 0.63 |  | 
3 | anti-MS4A4A antibody 4A-354 (antibody, V domains shown, full human IgG) VH: QVQLVQSGSELKKPGASVKVSCKASGYIFTSYGLSWVRQAPGQGLEWMGWINTYSGVPTYAQGFTGRFVFSLDTSVSTAYLQISSLKAEDTAVYYCARTLADYWGQGTLVTVSS VL: DVVMTQSPLSLPVTLGQPASISCKSSRSLLYSAGKTYLSWFQQRPGQSPRRLIYLVSKLDSGVPDRFSGSGSGTDFTLKISRVEAEDVGVYYCWQGIDFHQTFGGGTKVEIK | 13700 | 0.98 | 0.874 | 0.701 |  | 
4 | anti-MS4A4A antibody 4A-355 (antibody, V domains shown, full human IgG) VH: QVQLVQSGSELKKPGASVKVSCKASGYIFTSYGLSWVRQAPGQGLEWMGWINTYSGVPTYAQGFTGRFVFSLDTSVSTAYLQISSLKAEDTAVYYCARTLADYWGQGTLVTVSS VL: DVVMTQSPLSLPVTLGQPASISCKSSRSLLYSSGKTYLSWFQQRPGQSPRRLIYLVSKLDSGVPDRFSGSGSGTDFTLKISRVEAEDVGVYYCWQGIDFHQTFGGGTKVEIK | 13400 | 0.961 | 0.878 | 0.721 |  | 
5 | anti-MS4A4A antibody 4A-356 (antibody, V domains shown, full human IgG) VH: QVQLVQSGSELKKPGASVKVSCKASGYIFTSYGLSWVRQAPGQGLEWMGWINTYSGVPTYAQGFTGRFVFSLDTSVSTAYLQISSLKAEDTAVYYCARTLADYWGQGTLVTVSS VL: DVVMTQSPLSLPVTLGQPASISCKSSRSLLYSQGKTYLSWFQQRPGQSPRRLIYLVSKLDSGVPDRFSGSGSGTDFTLKISRVEAEDVGVYYCWQGIDFHQTFGGGTKVEIK | 12000 | 0.927 | 0.85 | 0.746 |  | 
6 | anti-MS4A4A antibody 4A-377 (antibody, V domains shown, full human IgG) VH: QVQLVQSGSELKKPGASVKVSCKASGYIFTSYGLSWVRQAPGQGLEWMGWINTYSGVPTYAQGFTGRFVFSLDTSVSTAYLQISSLKAEDTAVYYCARSMADYWGQGTLVTVSS VL: DVVMTQSPLSLPVTLGQPASISCKSSRSLLYSGGKTYLSWFQQRPGQSPRRLIYLVSKLDSGVPDRFSGSGSGTDFTLKISRVEAEDVGVYYCWQGIDFHQTFGGGTKVEIK | 12200 | 0.928 | 0.873 | 0.577 |  | 
7 | anti-MS4A4A antibody 4A-378 (antibody, V domains shown) VH: QVQLVQSGSELKKPGASVKVSCKASGYIFTSYGLSWVRQAPGQGLEWMGWINTYSGVPTYAQGFTGRFVFSLDTSVSTAYLQISSLKAEDTAVYYCARSMADYWGQGTLVTVSS VL: DVVMTQSPLSLPVTLGQPASISCKSSRSLLYSEGKTYLSWFQQRPGQSPRRLIYLVSKLDSGVPDRFSGSGSGTDFTLKISRVEAEDVGVYYCWQGIDFHQTFGGGTKVEIK | 9910 | 0.944 | 0.848 | 0.636 |  | 
8 | anti-MS4A4A antibody 4A-379 (antibody, V domains shown) VH: QVQLVQSGSELKKPGASVKVSCKASGYIFTSYGLSWVRQAPGQGLEWMGWINTYSGVPTYAQGFTGRFVFSLDTSVSTAYLQISSLKAEDTAVYYCARSMADYWGQGTLVTVSS VL: DVVMTQSPLSLPVTLGQPASISCKSSRSLLYSAGKTYLSWFQQRPGQSPRRLIYLVSKLDSGVPDRFSGSGSGTDFTLKISRVEAEDVGVYYCWQGIDFHQTFGGGTKVEIK | 10600 | 0.893 | 0.812 | 0.543 |  | 
9 | anti-MS4A4A antibody 4A-380 (antibody, V domains shown) VH: QVQLVQSGSELKKPGASVKVSCKASGYIFTSYGLSWVRQAPGQGLEWMGWINTYSGVPTYAQGFTGRFVFSLDTSVSTAYLQISSLKAEDTAVYYCARSMADYWGQGTLVTVSS VL: DVVMTQSPLSLPVTLGQPASISCKSSRSLLYSSGKTYLSWFQQRPGQSPRRLIYLVSKLDSGVPDRFSGSGSGTDFTLKISRVEAEDVGVYYCWQGIDFHQTFGGGTKVEIK | 11800 | 0.981 | 0.916 | 0.654 |  | 
10 | anti-MS4A4A antibody 4A-381 (antibody, V domains shown) VH: QVQLVQSGSELKKPGASVKVSCKASGYIFTSYGLSWVRQAPGQGLEWMGWINTYSGVPTYAQGFTGRFVFSLDTSVSTAYLQISSLKAEDTAVYYCARSMADYWGQGTLVTVSS VL: DVVMTQSPLSLPVTLGQPASISCKSSRSLLYSQGKTYLSWFQQRPGQSPRRLIYLVSKLDSGVPDRFSGSGSGTDFTLKISRVEAEDVGVYYCWQGIDFHQTFGGGTKVEIK | 12600 | 1 | 0.94 | 0.685 |  | 
11 | anti-MS4A4A antibody 4A-308 (antibody, human IgG1, V domains shown, human IgG1/kappa) VH: QVQLVQSGAEVKKPGASVKVSCKASGYTFTNYWMQWVRQAPGQGLEWMGATHPGHGDTRYAQKFQGRVTMTADKSTSTAYMELSSLRSEDTAVYYCAREEVYYGFRSYWYFDVWGRGTLVTVSS VL: DIVMTQSPDSLAVSLGERATINCRASESVDNYGVSFMNWYQQKPGQPPKLLIYGASNQGSGVPDRFSGSGSGTDFTLTISSLQAEDVAVYYCQQSKEVPPTFGGGTKVEIK |  |  |  |  | 97.2 | 0.12
12 | anti-MS4A4A antibody 4A-301 (antibody, human IgG1, V domains shown, human IgG1/kappa) VH: QVQLVQSGAEVKKPGASVKVSCKASGYTFTNYWMQWVRQAPGQGLEWMGATHPGHGDTRYAQKFQGRVTMTRDTSTSTVYMELSSLRSEDTAVYYCAREEVYYGFRSYWYFDVWGRGTLVTVSS VL: DIVMTQSPDSLAVSLGERATINCRASESVDNYGVSFMNWYQQKPGQPPKLLIYGASNQGSGVPDRFSGSGSGTDFTLTISSLQAEDVAVYYCQQSKEVPPTFGGGTKVEIK |  |  |  |  | 89.7 | 0.116
13 | anti-MS4A4A antibody 4A-304 (antibody, human IgG1, V domains shown, human IgG1/kappa) VH: QVQLVQSGAEVKKPGASVKVSCKASGYTFTNYWMQWVRQAPGQGLEWMGATHPGHGDTRYAQKFQGRVTMTRDTSTSTVYMELSSLRSEDTAVYYCAREEVYYGFRSYWYFDVWGRGTLVTVSS VL: EIVLTQSPGTLSLSPGERATLSCRASESVDNYGVSFMNWYQQKPGQAPRLLIYGASNQGSGIPDRFSGSGSGTDFTLTISRLEPEDFAVYYCQQSKEVPPTFGGGTKVEIK |  |  |  |  | 112 | 0.11
14 | anti-MS4A4A antibody 4A-309 (antibody, human IgG1, V domains shown, human IgG1/kappa) VH: QVQLVQSGAEVKKPGASVKVSCKASGYTFTNYWMQWVRQAPGQGLEWMGATHPGHGDTRYAQKFQGRVTLTADKSISTAYMELSRLRSDDTVVYYCAREEVYYGFRSYWYFDVWGRGTLVTVSS VL: EIVLTQSPATLSLSPGERATLSCRASESVDNYGVSFMNWYQQKPGQAPRLLIYGASNQGSGIPARFSGSGSGTDFTLTISSLEPEDFAVYYCQQSKEVPPTFGGGTKVEIK |  |  |  |  | 131 | 0.115
15 | anti-MS4A4A antibody 4A-312 (antibody, V domains shown, full human IgG) VH: QVQLVQSGAEVKKPGASVKVSCKASGYTFTNYWMQWVRQAPGQGLEWMGATHPGHGDTRYAQKFQGRVTMTRDTSTSTVYMELSSLRSEDTAVYYCAREEVDYGFRSYWYFDVWGRGTLVTVSS VL: EIVLTQSPATLSLSPGERATLSCRASESVDNYGVSFMNWYQQKPGQAPRLLIYGASNQQSGIPARFSGSGSGTDFTLTISSLEPEDFAVYYCQQSKEVPPTFGGGTKVEIK | 17700 | 0.184 | 0.11 | 0.097 |  | 
